According to patent US20200024358A1 (published 2020):

T1: recombinant Human BCMA Fc Chimera (produced in-house via transient expression in HEK293-6E cells) (human, UniProt Q02223 1-54)
T1 construct: not shown: Fc part of the chimera
T1 sequence (looked up): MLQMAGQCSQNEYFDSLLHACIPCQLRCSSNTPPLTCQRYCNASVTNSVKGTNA

T2: Human BCMA labelled with a fluorescent dye (human, UniProt Q02223 1-54, limits assumed, labelled with a fluorescent dye (dye and site not stated))
T2 construct: also called fluorescently labeled BCMA
T2 sequence (looked up): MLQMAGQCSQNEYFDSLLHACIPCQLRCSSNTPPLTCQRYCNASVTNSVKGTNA


Columns and labels:
[1] = target: T3, recombinant human PD-L1 His-tag protein (expressed after transient transfection in HEK293-6E) (human, UniProt Q9NZQ7 19-238, limits assumed); assay: dual-binding ELISA: BCMA Fc coated, then PD-L1 His, anti-His detection
T3 construct: not shown: His-tag

[2] = target: T4, recombinant human CD3 epsilon His-tag protein (Novoprotein, Cat. No. C578) (human, UniProt P07766 23-126); assay: dual-binding ELISA: BCMA Fc coated, then CD3 epsilon His, anti-His detection
T4 construct: Bought protein; not shown: His-tag

[3] = target: T1, recombinant Human BCMA Fc Chimera …; assay: dual-binding ELISA: BCMA Fc coated, then CD3 epsilon His or PD-L1 His, anti-His detection
Protocol: Trispecific antibody molecules were tested for their ability to bind the different targets using a Dual-Binding ELISA. […] Simultaneous binding to antigen pairs was detected via an anti-His antibody (Abcam, Cat. No. ab1187).

[4] = target: T1, recombinant Human BCMA Fc Chimera …; assay: dual-binding ELISA: BCMA Fc coated, then CD3 epsilon His, anti-His detection
[5] = target: T5, extracellular domain of human PD-L1 (Example 8) (human, UniProt Q9NZQ7 19-238); assay: Kinetic Exclusion Assay (KinExA 3200), 1:1 model
T5 construct: extracellular domain; also called PD-L1 antigen; immobilized PD-L1
Protocol: (§1) Studies were designed to measure the free antibody in samples with a fixed antibody concentration and different concentrations of antigen PD-L1 at equilibrium, reaction mixtures were performed in PBS (pH 7.4) with 1 mg/ml BSA. […] The equilibrium titration and kinetics data were fit to a 1:1 reversible binding model using KinExA Pro software (version 4.2.10; Sapidyne Instruments) to determine the Kd.

[6] = target: T2, Human BCMA labelled with a fluorescent …; assay: MicroScale Thermophoresis, labelled BCMA at 2 nM
Protocol: Human BCMA was labelled with a fluorescent dye and kept at a constant concentration of 2 nM. […] The samples were analyzed on a Monolith NT.115 Pico at 25° C., with 5% LED power and 40% Laser power.

[7] = target: T5, extracellular domain of human PD-L1 …; assay: competition ELISA in solution (Friguet), Scatchard plot
Protocol: First, mixtures of the trispecific antibody (Ab) at a fixed concentration and the PD-L1 antigen (Ag) at varying concentrations were incubated for sufficient time to reach equilibrium. Then the concentration of trispecific antibody, which remained unsaturated at equilibrium (not associated with PD-L1 antigen), was measured by a classical indirect ELISA using PD-L1 coated plates. […] The Kd was calculated from a Scatchard plot using the following equation:

[8] = target: T5, extracellular domain of human PD-L1 …; assay: Kinetic Exclusion Assay (KinExA 3200)
Protocol: as §1

T4 sequence (P07766 23-126): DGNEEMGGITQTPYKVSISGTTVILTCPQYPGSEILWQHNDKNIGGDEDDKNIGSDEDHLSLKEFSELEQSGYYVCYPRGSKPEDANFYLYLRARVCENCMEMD
T5 sequence (Q9NZQ7 19-238): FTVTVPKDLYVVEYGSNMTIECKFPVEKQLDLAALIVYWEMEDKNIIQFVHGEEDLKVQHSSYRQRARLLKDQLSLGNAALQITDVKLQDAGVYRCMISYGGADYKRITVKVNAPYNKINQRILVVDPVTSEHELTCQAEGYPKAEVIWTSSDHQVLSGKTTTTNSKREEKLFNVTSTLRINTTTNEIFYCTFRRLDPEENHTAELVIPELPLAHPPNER
T3 sequence (Q9NZQ7 19-238 limits assumed): as the sequence (Q9NZQ7 19-238) above

Binder | binding result [2] | binding result [4] | Kd [7] [nM] | other results
CDR1-056 (other, Trispecific tandem scFv-sdAb-sdAb on one chain; also called CDR-056) AVVTQEPSLTVSPGGTVTLTCGSSTGAVTTSNYANWVQQKPGKSPRGLIGGTNKRAPGVPARFSGSLLGGKAALTISGAQPEDEADYYCALWYSNHWVFGGGTKLTVLGGGGGSGGGGSGGGGSGGGGSEVQLVESGGGSVQPGGSLRLSCAASGFTFSTYAMNWVRQAPGKGLEWVGRIRSKANNYATYYADSVKGRFTISRDDSKNTLYLQMNSLRAEDTATYYCVRHGNFGDSYVSWFAYWGQGTTVTVSSGGGGSQVQLVESGGGLVQPGGSLRLSCAASGKMSSRRCMAWFRQAPGKGLERVAKLLTTSGSTYLADSVKGRFTISRDNSKNTVYLQMNSLRAEDTAVYYCAADSFEDPTCTLVTSSGAFQYWGQGTLVTVSSGGGGSQVQLVESGGGLVQPGGSLRLSCAASGFTLDYYAIGWFRQAPGKEREGVSCISRSDGSTYYADSVKGRFTISRDNAKNTVYLQMNSLKPEDTAVYYCAAAGADCSGYLRDYEFWGQGTLVTVSS | binds | – | – | binding result [1]: binds; binding result [3]: binds
CDR1-008 (bispecific antibody, also called bispecific tandem scFv BCMA/CD3; scFv BCMA/scFv CD3 BiTE) scFv: DIVLTQSPASLAMSLGKRATISCRASESVSVIGAHLIHWYQQKPGQPPKLLIYLASNLETGVPARFSGSGSGTDFTLTIDPVEEDDVAIYSCLQSRIFPRTFGGGTKLEIKGGGGSGGGGSGGGGSGGGGSQIQLVQSGPELKKPGETVKISCKASGYTFTDYSINWVKRAPGKGLKWMGWINTETREPAYAYDFRGRFAFSLETSASTAYLQINNLKYEDTATYFCALDYSYAMDYWGQGTSVTVSSGGGGSAVVTQEPSLTVSPGGTVTLTCGSSTGAVTTSNYANWVQQKPGKSPRGLIGGTNKRAPGVPARFSGSLLGGKAALTISGAQPEDEADYYCALWYSNHWVFGGGTKLTVLGGGGGSGGGGSGGGGSGGGGSEVQLVESGGGSVQPGGSLRLSCAASGFTFSTYAMNWVRQAPGKGLEWVGRIRSKANNYATYYADSVKGRFTISRDDSKNTLYLQMNSLRAEDTATYYCVRHGNFGDSYVSWFAYWGQGTTVTVSS | binds | binds | – | –
CDR1-007 (other, also called CDR-007; trispecific CDR1-007) heavy: QIQLVQSGPELKKPGETVKISCKASGYTFTDYSINWVKRAPGKGLKWMGWINTETREPAYAYDFRGRFAFSLETSASTAYLQINNLKYEDTATYFCALDYSYAMDYWGQGTSVTVSSASTKGPSVFPLAPSSKSTSGGTAALGCLVKDYFPEPVTVSWNSGALTSGVHTFPAVLQSSGLYSLSSVVTVPSSSLGTQTYICNVNHKPSNTKVDKRVEPKSCGGGGSEIVMTQSPSTLSASVGDRVIITCQASEDIYSLLAWYQQKPGKAPKLLIYDASDLASGVPSRFSGSGSGAEFTLTISSLQPDDSATYYCQGNYGSSSSSSYGAVFGQGTKLTVLGGGGGSGGGGSGGGGSGGGGSEVQLVESGGGSVQPGGSLRLSCTVSGIDLSSYTMGWVRQAPGKGLEWVGIISSGGRTYYASWAKGRFTISRDTSKNTVYLQMNSLRAEDTATYYCARGRYTGYPYYFALWGQGTTVTVSS light: DIVLTQSPASLAMSLGKRATISCRASESVSVIGAHLIHWYQQKPGQPPKLLIYLASNLETGVPARFSGSGSGTDFTLTIDPVEEDDVAIYSCLQSRIFPRTFGGGTKLEIKRTVAAPSVFIFPPSDEQLKSGTASVVCLLNNFYPREAKVQWKVDNALQSGNSQESVTEQDSKDSTYSLSSTLTLSKADYEKHKVYACEVTHQGLSSPVTKSFNRGECGGGGSAVVTQEPSLTVSPGGTVTLTCGSSTGAVTTSNYANWVQQKPGKSPRGLIGGTNKRAPGVPARFSGSLLGGKAALTISGAQPEDEADYYCALWYSNHWVFGGGTKLTVLGGGGGSGGGGSGGGGSGGGGSEVQLVESGGGSVQPGGSLRLSCAASGFTFSTYAMNWVRQAPGKGLEWVGRIRSKANNYATYYADSVKGRFTISRDDSKNTLYLQMNSLRAEDTATYYCVRHGNFGDSYVSWFAYWGQGTTVTVSS | binds | – | 0.11 | Kd [5]: 0.0217 to 0.042 nM; Kd [6]: 8.5 to 9.9 nM
CDR1-005 (bispecific antibody) heavy: QIQLVQSGPELKKPGETVKISCKASGYTFTDYSINWVKRAPGKGLKWMGWINTETREPAYAYDFRGRFAFSLETSASTAYLQINNLKYEDTATYFCALDYSYAMDYWGQGTSVTVSSASTKGPSVFPLAPSSKSTSGGTAALGCLVKDYFPEPVTVSWNSGALTSGVHTFPAVLQSSGLYSLSSVVTVPSSSLGTQTYICNVNHKPSNTKVDKRVEPKSC light: DIVLTQSPASLAMSLGKRATISCRASESVSVIGAHLIHWYQQKPGQPPKLLIYLASNLETGVPARFSGSGSGTDFTLTIDPVEEDDVAIYSCLQSRIFPRTFGGGTKLEIKRTVAAPSVFIFPPSDEQLKSGTASVVCLLNNFYPREAKVQWKVDNALQSGNSQESVTEQDSKDSTYSLSSTLTLSKADYEKHKVYACEVTHQGLSSPVTKSFNRGECGGGGSAVVTQEPSLTVSPGGTVTLTCGSSTGAVTTSNYANWVQQKPGKSPRGLIGGTNKRAPGVPARFSGSLLGGKAALTISGAQPEDEADYYCALWYSNHWVFGGGTKLTVLGGGGGSGGGGSGGGGSGGGGSEVQLVESGGGSVQPGGSLRLSCAASGFTFSTYAMNWVRQAPGKGLEWVGRIRSKANNYATYYADSVKGRFTISRDDSKNTLYLQMNSLRAEDTATYYCVRHGNFGDSYVSWFAYWGQGTTVTVSS | binds | binds | – | –
CDR1-017 (other, also called trispecific CDR1-017) heavy: QIQLVQSGPELKKPGETVKISCKASGYTFTDYSINWVKRAPGKGLKWMGWINTETREPAYAYDFRGRFAFSLETSASTAYLQINNLKYEDTATYFCALDYSYAMDYWGQGTSVTVSSASTKGPSVFPLAPSSKSTSGGTAALGCLVKDYFPEPVTVSWNSGALTSGVHTFPAVLQSSGLYSLSSVVTVPSSSLGTQTYICNVNHKPSNTKVDKRVEPKSCGGGGSEIVMTQSPSTLSASVGDRVIITCQASEDIYSLLAWYQQKPGKAPKLLIYDASDLASGVPSRFSGSGSGAEFTLTISSLQPDDSATYYCQGNYGSSSSSSYGAVFGQGTKLTVLGGGGGSGGGGSGGGGSGGGGSEVQLVESGGGSVQPGGSLRLSCTVSGIDLSSYTMGWVRQAPGKGLEWVGIISSGGRTYYASWAKGRFTISRDTSKNTVYLQMNSLRAEDTATYYCARGAYTGYPYYFALWGQGTTVTVSS light: DIVLTQSPASLAMSLGKRATISCRASESVSVIGAHLIHWYQQKPGQPPKLLIYLASNLETGVPARFSGSGSGTDFTLTIDPVEEDDVAIYSCLQSRIFPRTFGGGTKLEIKRTVAAPSVFIFPPSDEQLKSGTASVVCLLNNFYPREAKVQWKVDNALQSGNSQESVTEQDSKDSTYSLSSTLTLSKADYEKHKVYACEVTHQGLSSPVTKSFNRGECGGGGSAVVTQEPSLTVSPGGTVTLTCGSSTGAVTTSNYANWVQQKPGKSPRGLIGGTNKRAPGVPARFSGSLLGGKAALTISGAQPEDEADYYCALWYSNHWVFGGGTKLTVLGGGGGSGGGGSGGGGSGGGGSEVQLVESGGGSVQPGGSLRLSCAASGFTFSTYAMNWVRQAPGKGLEWVGRIRSKANNYATYYADSVKGRFTISRDDSKNTLYLQMNSLRAEDTATYYCVRHGNFGDSYVSWFAYWGQGTTVTVSS | – | – | 26 | fold difference in affinity against CDR1-007 (WT) [8]: ~1000 fold
CDR1-011 (other, also called CDR1-0011) heavy: QIQLVQSGPELKKPGETVKISCKASGYTFTDYSINWVKRAPGKGLKWMGWINTETREPAYAYDFRGRFAFSLETSASTAYLQINNLKYEDTATYFCALDYSYAMDYWGQGTSVTVSSASTKGPSVFPLAPSSKSTSGGTAALGCLVKDYFPEPVTVSWNSGALTSGVHTFPAVLQSSGLYSLSSVVTVPSSSLGTQTYICNVNHKPSNTKVDKRVEPKSCGGGGSEIVMTQSPSTLSASVGDRVIITCQASEDIASLLAWYQQKPGKAPKLLIYDASDLASGVPSRFSGSGSGAEFTLTISSLQPDDSATYYCQGNYGSSSSSSYGAVFGQGTKLTVLGGGGGSGGGGSGGGGSGGGGSEVQLVESGGGSVQPGGSLRLSCTVSGIDLSSYTMGWVRQAPGKGLEWVGIISSGGRTYYASWAKGRFTISRDTSKNTVYLQMNSLRAEDTATYYCARGRYTGYPYYFALWGQGTTVTVSS light: DIVLTQSPASLAMSLGKRATISCRASESVSVIGAHLIHWYQQKPGQPPKLLIYLASNLETGVPARFSGSGSGTDFTLTIDPVEEDDVAIYSCLQSRIFPRTFGGGTKLEIKRTVAAPSVFIFPPSDEQLKSGTASVVCLLNNFYPREAKVQWKVDNALQSGNSQESVTEQDSKDSTYSLSSTLTLSKADYEKHKVYACEVTHQGLSSPVTKSFNRGECGGGGSAVVTQEPSLTVSPGGTVTLTCGSSTGAVTTSNYANWVQQKPGKSPRGLIGGTNKRAPGVPARFSGSLLGGKAALTISGAQPEDEADYYCALWYSNHWVFGGGTKLTVLGGGGGSGGGGSGGGGSGGGGSEVQLVESGGGSVQPGGSLRLSCAASGFTFSTYAMNWVRQAPGKGLEWVGRIRSKANNYATYYADSVKGRFTISRDDSKNTLYLQMNSLRAEDTATYYCVRHGNFGDSYVSWFAYWGQGTTVTVSS | – | – | 5 | –
